The values that follow are results of earlier work, collected in PMC6685676.

Like-named read-outs stand apart in the source and are kept apart here.

Series [1] concerns the target angiotensin III (Homo sapiens) (UniProt P01019).
The target is the same in series [2]. The source holds these as a separate data set.

Chain of UniProt P01019 (P01019 whole entry, looked up): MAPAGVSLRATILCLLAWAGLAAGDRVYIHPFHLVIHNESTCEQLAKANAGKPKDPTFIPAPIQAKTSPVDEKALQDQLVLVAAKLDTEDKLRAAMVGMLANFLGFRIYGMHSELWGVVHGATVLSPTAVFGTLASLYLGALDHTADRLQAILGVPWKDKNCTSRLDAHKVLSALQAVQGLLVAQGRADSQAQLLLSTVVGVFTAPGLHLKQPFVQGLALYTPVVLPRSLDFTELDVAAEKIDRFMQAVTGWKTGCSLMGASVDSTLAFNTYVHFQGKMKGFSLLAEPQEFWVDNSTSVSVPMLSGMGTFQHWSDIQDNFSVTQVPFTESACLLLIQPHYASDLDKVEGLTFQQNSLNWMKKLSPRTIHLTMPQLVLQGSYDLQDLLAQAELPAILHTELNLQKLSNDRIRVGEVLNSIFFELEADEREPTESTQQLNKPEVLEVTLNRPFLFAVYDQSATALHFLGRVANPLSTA

What is called Ki is the dissociation constant of the complex between target and ligand, obtained from inhibition or displacement. Turning to DPP3 (from UniProt O55096), the Ki in series [1] is 24 nM. Take DPP3 (from UniProt Q9NY33): the Ki in series [2] was 88 nM.
